# Source: IntAct's records for PubMed 28838205
# B1: WW domain-binding protein 4 (Homo sapiens), O75554 (parent)
# chain: MADYWKSQPKKFCDYCKCWIADNRPSVEFHERGKNHKENVAKRISEIKQKSLDKAKEEEKASKEFAAMEAAALKAYQEDLKRLGLESEILEPSITPVTSTIPPTSTSNQQKEKKEKKKRKKDPSKGRWVEGITSEGYHYYYDLISGASQWEKPEGFQGDLKKTAVKTVWVEGLSEDGFTYYYNTETGESRWEKPDDFIPHTSDLPSSKVNENSLGTLDESKSSDSHSDSDGEQEAEEGGVSTETEKPKIKFKEKNKNSDGGSDPETQKEKSIQKQNSLGSNEEKSKTLKKSNPYGEWQEIKQEVESHEEVDLELPSTENEYVSTSEADGGGEPKVVFKEKTVTSLGVMADGVAPVFKKRRTENGKSRNLRQRGDDQ
# B2: WW domain-binding protein 4 (Homo sapiens), O75554 (parent)
# chain: B1 chain
# partner: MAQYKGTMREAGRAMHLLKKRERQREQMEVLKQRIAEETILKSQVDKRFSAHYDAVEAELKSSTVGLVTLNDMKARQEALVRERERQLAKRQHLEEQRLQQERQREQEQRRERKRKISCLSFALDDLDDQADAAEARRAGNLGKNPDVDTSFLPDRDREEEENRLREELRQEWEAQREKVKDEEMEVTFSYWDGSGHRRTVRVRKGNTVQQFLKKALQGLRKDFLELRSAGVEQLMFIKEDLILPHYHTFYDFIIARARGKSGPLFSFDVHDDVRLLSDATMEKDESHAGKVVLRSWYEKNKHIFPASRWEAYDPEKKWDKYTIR
# B3: WW domain-binding protein 4 (Homo sapiens), O75554 (parent)
# chain: B1 chain
# partner: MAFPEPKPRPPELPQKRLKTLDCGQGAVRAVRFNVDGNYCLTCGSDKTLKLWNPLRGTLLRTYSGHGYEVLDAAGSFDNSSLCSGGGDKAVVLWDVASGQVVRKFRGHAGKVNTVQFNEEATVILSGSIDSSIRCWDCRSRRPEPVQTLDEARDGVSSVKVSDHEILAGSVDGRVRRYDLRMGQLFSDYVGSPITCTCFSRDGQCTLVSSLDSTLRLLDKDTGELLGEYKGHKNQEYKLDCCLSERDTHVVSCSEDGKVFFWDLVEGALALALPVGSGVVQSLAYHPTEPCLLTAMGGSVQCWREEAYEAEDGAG
# B4: WW domain-binding protein 4 (Homo sapiens), O75554 (parent)
# chain: B1 chain
# partner: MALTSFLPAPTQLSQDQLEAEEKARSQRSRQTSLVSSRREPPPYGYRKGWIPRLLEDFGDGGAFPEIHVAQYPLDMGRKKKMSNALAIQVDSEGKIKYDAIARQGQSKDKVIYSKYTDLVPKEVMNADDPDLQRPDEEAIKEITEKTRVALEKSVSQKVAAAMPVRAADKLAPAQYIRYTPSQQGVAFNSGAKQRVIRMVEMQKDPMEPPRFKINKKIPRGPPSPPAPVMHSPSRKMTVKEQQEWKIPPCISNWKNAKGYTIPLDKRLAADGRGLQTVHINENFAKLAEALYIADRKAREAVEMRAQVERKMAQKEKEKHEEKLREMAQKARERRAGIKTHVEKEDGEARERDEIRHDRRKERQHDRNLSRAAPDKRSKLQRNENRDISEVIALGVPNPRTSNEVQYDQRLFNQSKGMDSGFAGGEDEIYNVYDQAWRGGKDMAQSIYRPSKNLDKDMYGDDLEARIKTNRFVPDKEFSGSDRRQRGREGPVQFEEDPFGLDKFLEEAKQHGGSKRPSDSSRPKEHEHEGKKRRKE
# Variants of: B1
# Settings: with u520_human SNRNP200, O75643
# Chain of u520_human SNRNP200, O75643 (O75643 whole entry): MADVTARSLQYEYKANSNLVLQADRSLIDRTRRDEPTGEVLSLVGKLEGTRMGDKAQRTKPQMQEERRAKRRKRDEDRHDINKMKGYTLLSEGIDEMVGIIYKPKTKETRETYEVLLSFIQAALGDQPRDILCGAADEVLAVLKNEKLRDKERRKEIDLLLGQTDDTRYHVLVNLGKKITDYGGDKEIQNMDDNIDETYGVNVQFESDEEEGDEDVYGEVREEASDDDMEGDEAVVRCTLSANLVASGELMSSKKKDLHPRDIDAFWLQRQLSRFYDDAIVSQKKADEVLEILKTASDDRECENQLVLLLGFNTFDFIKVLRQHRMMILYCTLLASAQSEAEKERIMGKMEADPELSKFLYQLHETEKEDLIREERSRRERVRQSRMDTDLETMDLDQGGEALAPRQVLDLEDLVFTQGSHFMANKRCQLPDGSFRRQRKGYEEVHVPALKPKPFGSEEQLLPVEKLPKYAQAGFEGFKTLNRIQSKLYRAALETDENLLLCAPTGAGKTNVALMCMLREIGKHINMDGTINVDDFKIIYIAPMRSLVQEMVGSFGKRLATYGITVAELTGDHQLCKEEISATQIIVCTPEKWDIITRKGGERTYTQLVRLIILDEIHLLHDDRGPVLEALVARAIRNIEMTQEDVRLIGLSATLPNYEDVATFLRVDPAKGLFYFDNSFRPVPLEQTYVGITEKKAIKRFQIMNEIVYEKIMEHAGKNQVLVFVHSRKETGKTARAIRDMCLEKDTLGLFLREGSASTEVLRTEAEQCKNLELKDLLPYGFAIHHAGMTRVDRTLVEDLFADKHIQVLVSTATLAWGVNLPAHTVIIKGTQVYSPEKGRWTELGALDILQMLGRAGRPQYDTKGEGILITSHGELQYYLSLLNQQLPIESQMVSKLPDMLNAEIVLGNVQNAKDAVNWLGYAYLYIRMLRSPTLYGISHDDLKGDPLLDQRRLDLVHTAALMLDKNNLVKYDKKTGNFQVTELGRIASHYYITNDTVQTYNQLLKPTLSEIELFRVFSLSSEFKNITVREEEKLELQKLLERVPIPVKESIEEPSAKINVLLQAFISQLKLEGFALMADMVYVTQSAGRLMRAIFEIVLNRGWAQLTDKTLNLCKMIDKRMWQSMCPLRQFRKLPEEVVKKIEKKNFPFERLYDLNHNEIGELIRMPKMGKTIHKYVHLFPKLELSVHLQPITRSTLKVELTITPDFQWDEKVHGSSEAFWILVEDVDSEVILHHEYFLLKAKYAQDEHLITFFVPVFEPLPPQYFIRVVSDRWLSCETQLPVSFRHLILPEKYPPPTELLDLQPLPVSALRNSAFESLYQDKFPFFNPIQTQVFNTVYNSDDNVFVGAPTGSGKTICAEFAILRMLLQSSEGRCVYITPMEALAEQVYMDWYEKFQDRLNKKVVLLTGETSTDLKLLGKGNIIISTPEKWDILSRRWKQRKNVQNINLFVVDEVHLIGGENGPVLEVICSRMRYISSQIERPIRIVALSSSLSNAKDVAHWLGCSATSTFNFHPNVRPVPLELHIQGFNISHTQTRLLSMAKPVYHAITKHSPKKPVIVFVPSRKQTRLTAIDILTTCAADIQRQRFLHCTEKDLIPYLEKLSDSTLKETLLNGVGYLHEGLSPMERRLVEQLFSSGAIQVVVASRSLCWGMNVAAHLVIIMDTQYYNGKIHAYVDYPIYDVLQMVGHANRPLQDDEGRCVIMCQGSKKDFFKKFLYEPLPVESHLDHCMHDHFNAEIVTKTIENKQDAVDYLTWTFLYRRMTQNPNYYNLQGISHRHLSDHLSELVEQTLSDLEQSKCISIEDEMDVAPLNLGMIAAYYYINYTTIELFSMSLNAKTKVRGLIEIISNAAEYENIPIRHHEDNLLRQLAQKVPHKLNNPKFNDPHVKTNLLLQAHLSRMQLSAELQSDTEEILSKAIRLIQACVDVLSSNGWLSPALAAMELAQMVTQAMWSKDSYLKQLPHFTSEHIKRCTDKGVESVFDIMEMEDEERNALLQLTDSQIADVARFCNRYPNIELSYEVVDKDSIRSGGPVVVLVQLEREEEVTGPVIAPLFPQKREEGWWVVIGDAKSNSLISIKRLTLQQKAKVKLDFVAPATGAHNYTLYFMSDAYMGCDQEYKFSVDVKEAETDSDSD
row,effect of a mutation on the interaction,Variant
1,with no effect,MADYWKSQPKKFCDYCKCWIADNRPSVEFHERGKNHKENVAKRISEIKQKSLDKAKEEEKASKEFAAMEAAALKAYQEDLKRLGLESEILEPSITPVTSTIPPTSTSNQQKEKKEKKKRKKDPSKGRWVEGITSEGYHYYYDLISGASQAEKPEGFQGDLKKTAVKTVWVEGLSEDGFTYYYNTETGESRWEKPDDFIPHTSDLPSSKVNENSLGTLDESKSSDSHSDSDGEQEAEEGGVSTETEKPKIKFKEKNKNSDGGSDPETQKEKSIQKQNSLGSNEEKSKTLKKSNPYGEWQEIKQEVESHEEVDLELPSTENEYVSTSEADGGGEPKVVFKEKTVTSLGVMADGVAPVFKKRRTENGKSRNLRQRGDDQ [W150A]

# Variants of: B1
# Settings: with ppih_human PPIH
row,effect of a mutation on the interaction,Variant
1,with no effect,MADYWKSQPKKFCDYCKCWIADNRPSVEFHERGKNHKENVAKRISEIKQKSLDKAKEEEKASKEFAAMEAAALKAYQEDLKRLGLESEILEPSITPVTSTIPPTSTSNQQKEKKEKKKRKKDPSKGRWVEGITSEGYHYYYDLISGASQAEKPEGFQGDLKKTAVKTVWVEGLSEDGFTYYYNTETGESRWEKPDDFIPHTSDLPSSKVNENSLGTLDESKSSDSHSDSDGEQEAEEGGVSTETEKPKIKFKEKNKNSDGGSDPETQKEKSIQKQNSLGSNEEKSKTLKKSNPYGEWQEIKQEVESHEEVDLELPSTENEYVSTSEADGGGEPKVVFKEKTVTSLGVMADGVAPVFKKRRTENGKSRNLRQRGDDQ [W150A]

# Variants of: B1
# Settings: with sf3b2_human SF3B2, Q13435
# Chain of sf3b2_human SF3B2, Q13435 (Q13435 whole entry): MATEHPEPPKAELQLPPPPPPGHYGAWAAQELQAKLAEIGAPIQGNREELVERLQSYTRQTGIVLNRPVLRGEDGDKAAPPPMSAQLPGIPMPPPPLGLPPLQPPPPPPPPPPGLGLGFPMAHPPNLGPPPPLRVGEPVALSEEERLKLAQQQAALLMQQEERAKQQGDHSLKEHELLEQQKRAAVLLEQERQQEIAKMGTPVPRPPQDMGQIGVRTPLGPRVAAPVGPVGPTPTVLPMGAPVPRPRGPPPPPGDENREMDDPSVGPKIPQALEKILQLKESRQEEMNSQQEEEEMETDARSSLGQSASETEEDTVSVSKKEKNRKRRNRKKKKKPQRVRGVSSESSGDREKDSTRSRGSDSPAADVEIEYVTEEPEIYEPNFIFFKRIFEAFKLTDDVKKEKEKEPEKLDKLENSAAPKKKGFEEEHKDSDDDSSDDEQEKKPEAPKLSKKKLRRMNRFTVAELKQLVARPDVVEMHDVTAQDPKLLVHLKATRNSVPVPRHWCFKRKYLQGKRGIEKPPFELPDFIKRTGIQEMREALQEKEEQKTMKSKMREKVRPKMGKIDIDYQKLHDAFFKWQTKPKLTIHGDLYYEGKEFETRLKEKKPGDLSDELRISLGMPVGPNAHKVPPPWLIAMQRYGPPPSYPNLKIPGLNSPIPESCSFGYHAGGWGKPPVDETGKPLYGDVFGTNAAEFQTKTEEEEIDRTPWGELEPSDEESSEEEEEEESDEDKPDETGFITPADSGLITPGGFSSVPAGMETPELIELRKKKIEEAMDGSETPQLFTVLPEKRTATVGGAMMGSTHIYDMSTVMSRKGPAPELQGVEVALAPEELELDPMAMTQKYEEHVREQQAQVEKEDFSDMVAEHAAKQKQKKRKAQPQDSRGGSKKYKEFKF
row,effect of a mutation on the interaction,Variant
1,with no effect,MADYWKSQPKKFCDYCKCWIADNRPSVEFHERGKNHKENVAKRISEIKQKSLDKAKEEEKASKEFAAMEAAALKAYQEDLKRLGLESEILEPSITPVTSTIPPTSTSNQQKEKKEKKKRKKDPSKGRWVEGITSEGYHYYYDLISGASQAEKPEGFQGDLKKTAVKTVWVEGLSEDGFTYYYNTETGESRWEKPDDFIPHTSDLPSSKVNENSLGTLDESKSSDSHSDSDGEQEAEEGGVSTETEKPKIKFKEKNKNSDGGSDPETQKEKSIQKQNSLGSNEEKSKTLKKSNPYGEWQEIKQEVESHEEVDLELPSTENEYVSTSEADGGGEPKVVFKEKTVTSLGVMADGVAPVFKKRRTENGKSRNLRQRGDDQ [W150A]

# Variants of: B1
# Settings: with zc21a_human ZC2HC1A
row,effect of a mutation on the interaction,Variant
1,with no effect,MADYWKSQPKKFCDYCKCWIADNRPSVEFHERGKNHKENVAKRISEIKQKSLDKAKEEEKASKEFAAMEAAALKAYQEDLKRLGLESEILEPSITPVTSTIPPTSTSNQQKEKKEKKKRKKDPSKGRWVEGITSEGYHYYYDLISGASQAEKPEGFQGDLKKTAVKTVWVEGLSEDGFTYYYNTETGESRWEKPDDFIPHTSDLPSSKVNENSLGTLDESKSSDSHSDSDGEQEAEEGGVSTETEKPKIKFKEKNKNSDGGSDPETQKEKSIQKQNSLGSNEEKSKTLKKSNPYGEWQEIKQEVESHEEVDLELPSTENEYVSTSEADGGGEPKVVFKEKTVTSLGVMADGVAPVFKKRRTENGKSRNLRQRGDDQ [W150A]

# Variants of: B1
# Settings: with u520_human SNRNP200, O75643
# Remark: another data set of the same source
row,effect of a mutation on the interaction,Variant
1,with no effect,MADYWKSQPKKFCDYCKCWIADNRPSVEFHERGKNHKENVAKRISEIKQKSLDKAKEEEKASKEFAAMEAAALKAYQEDLKRLGLESEILEPSITPVTSTIPPTSTSNQQKEKKEKKKRKKDPSKGRWVEGITSEGYHYYYDLISGASQWEKPEGFQGDLKKTAVKTVWVEGLSEDGFTYYYNTETGESRWEKPDDFIPHTSDLPSSKVNENSLGTLDESKSSDSHSDSDGEQEAEEGGVSTETEKPKIKFKEKNKNSDGGSDPETQKEKSIQKQNSLGSNEEKSKTLKKSNPYGEWQEIKQEVESHEEVDLELPSTENEYVSTSEADGGGEPKVVFKEKTVTSLGVMADGVAPVFEKERTENGKSRNLRQRGDDQ [K357E;R359E]

# Variants of: B1
# Settings: with u520_human SNRNP200, O75643
# Remark: another data set of the same source
row,effect of a mutation on the interaction,Variant
1,decreasing interaction strength,MADYWKSQPKKFCDYCKCWIADNRPSVEFHERGKNHKENVAKRISEIKQKSLDKAKEEEKASKEFAAMEAAALKAYQEDLKRLGLESEILEPSITPVTSTIPPTSTSNQQKEKKEKKKRKKDPSKGRWVEGITSEGYHYYYDLISGASQWEKPEGFQGDLKKTAVKTVWVEGLSEDGFTYYYNTETGESRWEKPDDFIPHTSDLPSSKVNENSLGTLDESKSSDSHSDSDGEQEAEEGGVSTETEKPKIKFKEKNKNSDGGSDPETQKEKSIQKQNSLGSNEEKSKTLKKSNPYGEWQEIKQEVESHEEVDLELPSTENEYVSTSEADGGGEPKVVFKEKTVTSLGVMADGVAPVFEKERTENGKSRNLRQRGDDQ [K357E;R359E]
2,decreasing interaction strength,MADYWKSQPKKFCDYCKCWIADNRPSVEFHERGKNHKENVAKRISEIKQKSLDKAKEEEKASKEFAAMEAAALKAYQEDLKRLGLESEILEPSITPVTSTIPPTSTSNQQKEKKEKKKRKKDPSKGRWVEGITSEGYHYYYDLISGASQWEKPEGFQGDLKKTAVKTVWVEGLSEDGFTYYYNTETGESRWEKPDDFIPHTSDLPSSKVNENSLGTLDESKSSDSHSDSDGEQEAEEGGVSTETEKPKIKFKEKNKNSDGGSDPETQKEKSIQKQNSLGSNEEKSKTLKKSNPYGEWQEIKQEVESHEEVDLELPSTENEYVSTSEADGGGEPKVVFKEKTVTSLGVMADGVAPVFKARATENGKSRNLRQRGDDQ [K358A;R360A]

# Variants of: B2
# Settings: with fa50b_human FAM50B
row,effect of a mutation on the interaction,Variant
1,with no effect,MADYWKSQPKKFCDYCKCWIADNRPSVEFHERGKNHKENVAKRISEIKQKSLDKAKEEEKASKEFAAMEAAALKAYQEDLKRLGLESEILEPSITPVTSTIPPTSTSNQQKEKKEKKKRKKDPSKGRWVEGITSEGYHYYYDLISGASQAEKPEGFQGDLKKTAVKTVWVEGLSEDGFTYYYNTETGESRWEKPDDFIPHTSDLPSSKVNENSLGTLDESKSSDSHSDSDGEQEAEEGGVSTETEKPKIKFKEKNKNSDGGSDPETQKEKSIQKQNSLGSNEEKSKTLKKSNPYGEWQEIKQEVESHEEVDLELPSTENEYVSTSEADGGGEPKVVFKEKTVTSLGVMADGVAPVFKKRRTENGKSRNLRQRGDDQ [W150A]

# Variants of: B3
# Settings: with wdr83_human WDR83, Q9BRX9
row,effect of a mutation on the interaction,Variant
1,with no effect,MADYWKSQPKKFCDYCKCWIADNRPSVEFHERGKNHKENVAKRISEIKQKSLDKAKEEEKASKEFAAMEAAALKAYQEDLKRLGLESEILEPSITPVTSTIPPTSTSNQQKEKKEKKKRKKDPSKGRWVEGITSEGYHYYYDLISGASQAEKPEGFQGDLKKTAVKTVWVEGLSEDGFTYYYNTETGESRWEKPDDFIPHTSDLPSSKVNENSLGTLDESKSSDSHSDSDGEQEAEEGGVSTETEKPKIKFKEKNKNSDGGSDPETQKEKSIQKQNSLGSNEEKSKTLKKSNPYGEWQEIKQEVESHEEVDLELPSTENEYVSTSEADGGGEPKVVFKEKTVTSLGVMADGVAPVFKKRRTENGKSRNLRQRGDDQ [W150A]

# Variants of: B4
# Settings: with snw1_human SNW1, Q13573
row,effect of a mutation on the interaction,Variant
1,with no effect,MADYWKSQPKKFCDYCKCWIADNRPSVEFHERGKNHKENVAKRISEIKQKSLDKAKEEEKASKEFAAMEAAALKAYQEDLKRLGLESEILEPSITPVTSTIPPTSTSNQQKEKKEKKKRKKDPSKGRWVEGITSEGYHYYYDLISGASQAEKPEGFQGDLKKTAVKTVWVEGLSEDGFTYYYNTETGESRWEKPDDFIPHTSDLPSSKVNENSLGTLDESKSSDSHSDSDGEQEAEEGGVSTETEKPKIKFKEKNKNSDGGSDPETQKEKSIQKQNSLGSNEEKSKTLKKSNPYGEWQEIKQEVESHEEVDLELPSTENEYVSTSEADGGGEPKVVFKEKTVTSLGVMADGVAPVFKKRRTENGKSRNLRQRGDDQ [W150A]
